Assay results as given in patent publication US7354735B2, “Nucleic acid encoding fluorescent protein constructs and methods for detecting apoptosis” (Hong Kong University of Science and Technology, priority 2001, dated 2008).

Assays:
caspase-3 [1] = target: T1, caspase-3 (Homo sapiens, UniProt P42574); assay: Western blot analysis of caspase-3 cleavage of purified FRET probes; type: biochemical; conditions: for cleavage by caspase-3 (Western blot): purified protein incubated with caspase-3, 37 degree C, 1-2 hrs, anti-GFP antibody
T1 sequence (P42574 29-175 limits assumed): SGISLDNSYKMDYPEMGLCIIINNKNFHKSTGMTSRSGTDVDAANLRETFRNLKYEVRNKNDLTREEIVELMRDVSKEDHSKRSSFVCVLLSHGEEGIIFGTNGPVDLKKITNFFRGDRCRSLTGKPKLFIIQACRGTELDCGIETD
T1 sequence (P42574 176-277 limits assumed): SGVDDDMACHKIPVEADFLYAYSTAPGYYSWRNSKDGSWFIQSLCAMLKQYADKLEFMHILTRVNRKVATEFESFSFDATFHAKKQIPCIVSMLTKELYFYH
Description: Purified FRET probes were incubated with caspase-3 in the reaction buffer at 37. degree. C. for 1-2 hrs. The reaction mixtures were separated on a SDS-PAGE and transferred onto a nitrocellulose membrane. The Protein blot was then probed with anti-GFP antibody (CLONTECH™). Acetyl-Asp-Glu-Val-Asp-aldehyde called CHO (AC-DEVD-CHO) is a chemical derivative of SEQ ID NO: 11 and a caspase-3 specific inhibitor.
To determine whether these FRET probes are sensitive to caspase-3 cleavage; the purified proteins were incubated with caspase-3 and then subjected to Western blot analysis. Antibodies were purchased from CLONTECH™.

caspase-3 [2] = target: T1, caspase-3; assay: Spectrofluorometer measurement of FRET emission spectra before and after caspase-3 treatment; type: biochemical; conditions: excitation 433 nm; for YFP (526 nm)/CFP (480 nm) emission ratio after caspase treatment: after incubating with caspase-3; for YFP (526 nm)/CFP (480 nm) emission ratio before caspase treatment: before caspase-3
Description: The excitation wavelength used to excite CFP in the probe was 433 nm. −cpp32: no caspase-3 in the reaction. +cpp32: caspase-3 was added into the reaction.
The fluorescent energy transfer from CYP to YFP in the FRET probes was measured using a spectrofluorometer. When CFP was excited in each probe at the excitation wavelength of 433 nm, very little emission light was detected from the FRET probes at the known emission wavelength for CFP (480 nm). Instead, a significant amount of emitted fluorescent light was detected at the emission wavelength of YFP which peaks at 526 nm (FIG. 4). […] It was then determined whether the FRET effect was sensitive to the caspase cleavage. The FRET probes were treated with caspase-3 and analyzed using a spectrofluorometer. […] As a control, no change for the emission spectrum was observed from the CFP-YFP fusion protein which lacks the substrate sequence (FIG. 4A). Based on spectra similar to FIG. 4, it was determined the YFP (526 nm)/CFP (480 nm) emission ratio for all three FRET probes before and after caspase treatment. This YFP/CFP ratio was used to quantify the FRET effect.

caspase-3 [3] = target: T1, caspase-3; assay: Dosage-dependent caspase-3 cleavage assay; type: biochemical; conditions: 1.28 μg sensor protein, caspase-3 0.3125 ng to 1.28 μg, 1 hour; for sensitivity to caspase-3: normalized YFP/CFP ratio
Description: Same amount of purified sensor A and sensor B protein was incubated with different amount of caspase-3 ranging from 0.3125 ng to 1.28 μg for 1 hr. The emission spectra of both YFP and CFP were measured for each sample at the end of reaction using a spectrofluorometer. The emission ratio (YFP/CFP) of each sample was normalized to the value of the ratio from a mock control with no caspase-3.
To compare the sensitivity of sensor A and sensor B on caspase-3 activity, a dosage-dependent caspase-3 cleavage assay was performed. In this experiment, 1.28 μg amount of the purified sensor A or sensor B protein was incubated with different amount of caspase-3 ranging from 0.3125 ng to 1.28 μg for 1 hour. The emission spectra of both YFP and CFP were measured for each sample at the end of the reaction using a spectrofluorometer. The emission ratio (YFP/CFP) of each caspase reaction was normalized with that of the mock control having no caspase-3 in the reaction.

HeLa cells = assay: Imaging of FRET probe in living HeLa cells during UV-induced apoptosis; type: cell-based
Description: HeLa cells expressing either sensor A or CFP-YFP fusion protein were induced to apoptosis by UV irradiation for 5 min. When the probe was excited at 440 nm, the fluorescent intensity of CFP (at 480±15 nm) and that of YFP (at 535±12.5 nm) from same cell before (A, C) and after (B, D) UV treatment was recorded using a cooled CCD imaging system. The representative ratio images of YFP/CFP are shown here. A significant FRET reduction is seen only in panel B from both cells expressing sensor A, but not in panel D with cells expressing the control fusion protein.
FIG. 7 is a statistic analysis of FRET changes during apoptosis. Images were recorded as described in FIG. 6. The fluorescent intensities of YFP and CFP were then determined from each image. The average values of YFP/CFP from 13 cells expressing sensor A and 9 cells expressing CFP-YFP fusion protein before and after UV-irradiation are plotted here. Nearly 4-fold reduction in the apoptotic cells expressing was found using the FRET probe but not in the control cells expressing the CFP-YFP fusion gene.
To test whether this FRET probe can be used to detect caspase activity in living cells, sensor A was expressed in HeLa cells and measured the FRET effect of the probe in single cells using a cooled CCD imaging system. The fluorescent images of the cell obtained from the emission wavelengths of CFP and YFP were recorded before and after UV treatment. A computer software (Metamorph, Universal Imaging) was used to generate a ratio image of YFP/CFP for each cell under different treatments. […] At 3 hours after the UV treatment, these cells had entered apoptosis. […] The average YFP/CFP emission ratio changes was calculated for 13 apoptotic cells expressing sensor A, and found a nearly 4-fold reduction after UV treatment (FIG. 7).
Recently, sensor A was used to study the dynamics of caspase-3 activation during UV-induced apoptosis in living HeLa cells.

| cleavage by caspase-3 (Western blot) (caspase-3 [1]) | change of emission spectrum on caspase-3 treatment (caspase-3 [2]) | YFP (526 nm)/CFP (480 nm) emission ratio after caspase treatment (caspase-3 [2]) | YFP (526 nm)/CFP (480 nm) emission ratio before caspase treatment (caspase-3 [2]) | relative sensitivity to caspase-3 (sensor A versus sensor B) (caspase-3 [3]) | sensitivity to caspase-3 (caspase-3 [3]) | cleavage of FRET probe (sensor A) by caspase-3 in the presence of inhibitor (caspase-3 [1]; caspase-3 plus inhibitor, Western blot) | Substance | reduction of average YFP/CFP emission ratio after UV treatment (HeLa cells; HeLa cells expressing the probe, before and after UV irradiation, 13 cells sensor A, 9 control cells) | intensity of YFP/CFP ratio image after UV treatment (HeLa cells; HeLa cells, 3 hours after UV treatment) | detection of caspase-3 activation during UV-induced apoptosis (HeLa cells; living HeLa cells) |
| --- | --- | --- | --- | --- | --- | --- | --- | --- | --- | --- |
| caspase-3 can cleave almost all | completely changed | 0.59 | 3.02 | slightly more sensitive than sensor B | highly sensitive | – | sensor A: CFP-YFP FRET fusion protein with 16 amino acid linker SGLRSGGDEVDGGSNS (SEQ ID NO: 7) containing the caspase-3 recognition motif (left off: small tags and cut ends; large carriers) | ~4 fold | decease dramatically | clearly detected prior to any visible cell morphological changes |
| – | – | – | – | – | – | no FRET probe (sensor A) was cleaved | acetyl-Asp-Glu-Val-Asp-aldehyde [AC-DEVD-CHO, reference compound] | – | – | – |
| caspase-3 can cleave almost all | completely changed | 0.59 | 2.76 | – | highly sensitive | – | sensor B: CFP-YFP FRET fusion protein with 22 amino acid linker SGLRSGGSGGDEVDGGSGGSNS (SEQ ID NO: 10) containing DEVD (left off: small tags and cut ends; large carriers) | – | – | – |
